Laboratory results taken from patent publication US20220259306A1.

Biological target: hFc-tagged NKG2A/CD94 protein (NKG2A/CD94-hFc), immunogen A (human) (UniProt P26715)
Test: ELISA on NKG2A/CD94-hFc protein (immunogen A), OD 450 nm

Chain of hFc-tagged NKG2A/CD94 protein (NKG2A/CD94-hFc), immunogen A (human) (P26715 94-233 limits assumed, chain 1 of 2): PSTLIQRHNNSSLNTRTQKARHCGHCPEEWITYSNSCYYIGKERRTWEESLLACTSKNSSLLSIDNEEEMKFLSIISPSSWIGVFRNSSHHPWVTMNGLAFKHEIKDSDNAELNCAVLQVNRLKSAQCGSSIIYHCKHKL
Chain of hFc-tagged NKG2A/CD94 protein (NKG2A/CD94-hFc), immunogen A (human) (chain, as listed by the source limits assumed, chain 2 of 2): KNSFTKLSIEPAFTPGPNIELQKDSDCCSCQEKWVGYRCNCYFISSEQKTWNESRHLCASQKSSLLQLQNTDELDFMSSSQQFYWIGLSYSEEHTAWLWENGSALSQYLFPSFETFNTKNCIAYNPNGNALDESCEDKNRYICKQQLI

| EC50 (read off the curve) [nM] | Substance |
| --- | --- |
| 0.06 | control antibody-1 |
| 0.1 | control antibody-2 |
